The values below come from CN113912731A (SHENGHE CHINA BIO PHARMACY CO LTD, dated 2022).

T1: 人FGL1-his蛋白(Sinobio;Cat:13484-H08B) (human, UniProt Q08830 23-312)
T1 construct: Bought protein; also called 重组人FGL1-his蛋白; not shown: his tag
T1 sequence (looked up): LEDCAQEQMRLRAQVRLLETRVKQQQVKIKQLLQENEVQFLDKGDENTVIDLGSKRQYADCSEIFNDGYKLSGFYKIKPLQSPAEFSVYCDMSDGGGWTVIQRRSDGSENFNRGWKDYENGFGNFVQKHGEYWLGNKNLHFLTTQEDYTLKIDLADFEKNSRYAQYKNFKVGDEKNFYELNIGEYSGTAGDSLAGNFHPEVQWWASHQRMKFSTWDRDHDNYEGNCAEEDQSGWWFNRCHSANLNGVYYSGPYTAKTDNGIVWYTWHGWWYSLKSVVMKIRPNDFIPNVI

T2: 鼠FGL1-his (mouse, UniProt Q71KU9 23-314, limits assumed)
T2 construct: also called 小鼠FGL1蛋白; 鼠FGL1蛋白; not shown: his tag
T2 sequence (looked up): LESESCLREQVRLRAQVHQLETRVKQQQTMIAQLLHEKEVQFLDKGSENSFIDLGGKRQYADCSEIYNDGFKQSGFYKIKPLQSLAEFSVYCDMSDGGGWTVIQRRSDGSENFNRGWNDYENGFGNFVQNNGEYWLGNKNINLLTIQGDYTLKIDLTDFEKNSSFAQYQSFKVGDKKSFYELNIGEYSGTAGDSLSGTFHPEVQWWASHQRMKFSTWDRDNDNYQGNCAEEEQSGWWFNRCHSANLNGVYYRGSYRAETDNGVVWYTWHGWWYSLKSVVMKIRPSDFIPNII

B1: SH-09 (antibody, human IgG1, V domains shown)
VH: QVQLVESGGGLVQPGGSLRLSCTASGFNLDFYTIGWFLQAPGKEREGVSCISNSGGSSVYADSVKGRFTISRDSAKNTVYLQMNSLDPEDTAVYYCAALAGRGCMRSPITTDEYDSWGQGTQVTVSS
notes: Heavy-chain-only antibody from the alpaca immune phage library; expressed in CHO cells; also called 抗体SH-09
B2: SH-05 (antibody, V domains shown)
VH: EVQLVQSGGVVVQPGGSLRLSCAASGFTFDDYAMHWVRQAPGKGLEWVSLISWDGGSTYYADSVKGRFTISRDNSKNTLYLQMNSLRAEDTAVYYCARNSGRRNWFDPWGQGTLVTVSS
VL: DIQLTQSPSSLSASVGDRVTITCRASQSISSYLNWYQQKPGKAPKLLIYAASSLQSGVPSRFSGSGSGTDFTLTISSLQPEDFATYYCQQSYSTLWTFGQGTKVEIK
notes: From the human natural phage display library; also called 抗体SH-05; not shown: 轻链恒定区
B3: SH-08 (antibody, V domains shown)
VH: EVQLVESGGGLVKPGGSLRLSCAASGFTFSSYSMNWVRQAPGKGLEWVSSISSSSSYIYYADSVKGRFTISRDNAKNSLYLQMNSLRAEDTAVYYCARDFPSPSGGRGFRPTTARGYGMDVWGQGTTVTVSS
VL: QSALTQPASVSGSPGQSIIISCTGSKSDIGTYNFVSWYQQHPGKAPNVIIYNVNKRPSGVSDRFSGSKSGNTASLTISGLQAEDEADFYCSSYTSSGTHVFGSGTKVIVL
notes: From the human natural phage display library; also called 抗体SH-08; not shown: 轻链恒定区
B4: SH-06 (antibody, V domains shown)
VH: QVQLQESGPGLVKPSQTLSLTCTVSGGSISSGGYYWSWIRQHPGKGLEWIGYIYYSGSTYYNPSLKSRVTISVDTSKNQFSLKLSSVTAADTAVYYCARDSVMGYAPRVRAFDIWGQGTMVTVSS
VL: QSALTQPPSASGTPGQRVTISCSGSSSNIGTNTVNWYQQLPGTAPKLLIYSTNQRPSGVPDRFSGSKSGTSASLAISGLQSEDEADYYCSSWAGDLNGRLFGGGTKLTVL
notes: From the human natural phage display library; also called 抗体SH-06; not shown: 轻链恒定区
B5: SH-07 (antibody, V domains shown)
VH: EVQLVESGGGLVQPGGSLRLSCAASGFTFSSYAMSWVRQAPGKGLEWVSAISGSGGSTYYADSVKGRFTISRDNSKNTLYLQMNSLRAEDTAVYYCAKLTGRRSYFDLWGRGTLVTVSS
VL: DIQMIQSPSSLSASVGDRVTITCRASQSISHYLNWYQQKPGKVPKLLIYAASSLQSGVPSRFSGSGSGTDFTLTISSLQPEDFATYYCQQSYSTPSFGQGTKVEIK
notes: From the human natural phage display library; also called 抗体SH-07; not shown: 轻链恒定区
B6: SH-10 (antibody, human IgG1, V domains shown)
VH: EVQLVESGGGLVQPGGSLRLSCAASGDTLDYYAIGWFRQAPGKEREGVSCIRSSGSGPHYSDSVQDRFIISRDNARGTVYLQMNSLKPEDTAVYYCAATEGFYCSPTLSQGEYDYWGQGTQVTVSS
notes: Heavy-chain-only antibody from the alpaca immune phage library; expressed in CHO cells; also called 抗体SH-10
B7: SH-04 (antibody, V domains shown)
VH: EVQLQQSGPELEKPGASVKMSCKASGYTFTRYWMHWVKQRPGQGLEWIGMIDPSDSYTSYNQKFKGKATLTVDTSSSTAYMQLSSLTSEDSAVYYCTLRPGLDYWGQGTTLTVSS
VL: DIVMTQSQKFMSTSVGDRVSVTCKASQNVGTNVAWYQQKPGQSPKALIYSASYRYSGVPDRFTGSGSGTDFTLTISNVQSEDLAEYFCQQYNSYPLTFGGGTKLEIK
notes: From hybridoma; also called 抗体SH-04; not shown: 轻链恒定区
B8: SH-03 (antibody, V domains shown)
VH: QVQLQQSGPELVKPGASVKISCKASGYTFTDYYINWLRQKPGQGLEWIGWIYPGSANTNYNEKFKGKAILTVDTSSSTAYMQLSSLTSEDTAVYFCARWLLRSAYWGQGTLVTVSA
VL: DIVLSQSPAILSASPGEKVTMTCRASSSVSYMYWYQQKPGSSPKPWIYATSNLASGVPARFSGSGSGTSYSLTISRVEAEDAATYYCQQWSSNPYTFGGGTKLEIK
notes: From hybridoma; also called 抗体SH-03; not shown: 轻链恒定区

The target in the first assay is T1, 人FGL1-his蛋白(Sinobio;Cat:13484-H08B). As to the kind of experiment: ELISA, plate coated with human FGL1-his.
Turning to B1, the binding result is listed as “binds”.
Consider B2, for which the binding result is on record as “binds”.
Consider B3, for which the binding result was “binds”.
Turning to B4, the binding result was “binds”.
As for B5, the binding result is “binds”.
On the same count and under the same terms, to B6 belongs “binds”; to B7, “binds”.
The same measure, in the same setting: then B8, with “binds”.

For another assay, the target named is T2, 鼠FGL1-his. Kind of assay: human/mouse cross-reactivity (ELISA of Example 8).
Consider B5, for which the binding result is listed as “binds”.
